In general, Kd refers to the equilibrium constant for the complex coming apart. In general, koff refers to the first-order rate constant of dissociation. The term kon denotes the rate constant with which the complex forms.

One assay addresses human PD-1 (human, UniProt Q15116 25-288). Briefly: cell-based or functional assay.
In assay [1] the target is Human PD-1 antigen protein (Sino Biological, 10377-H08H) (human, UniProt Q15116 25-167). Briefly: SPR Biacore 8K, antibody captured by anti-human IgG (Fc), PD-1 as analyte. Background: Surface plasmon resonance follows binding to a sensor surface in real time, without labels.
Chain of Human PD-1 antigen protein (Sino Biological, 10377-H08H) (Q15116 25-167 limits assumed): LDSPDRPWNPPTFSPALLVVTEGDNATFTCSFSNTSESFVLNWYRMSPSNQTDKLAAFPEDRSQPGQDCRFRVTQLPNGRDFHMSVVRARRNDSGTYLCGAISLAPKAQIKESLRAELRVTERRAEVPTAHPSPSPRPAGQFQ
The target in assay [2] is T1, cynomolgus monkey PD-1 antigen protein (Sino Biological, 90311-C08H) (cynomolgus monkey, UniProt B0LAJ3 25-170).
T1 construct: not shown: Tag of the vendor's construct (Sino Biological 90311-C08H, probably a C-terminal His tag)
T1 sequence (B0LAJ3 entry or part of it C08H C08H limits assumed, form in doubt): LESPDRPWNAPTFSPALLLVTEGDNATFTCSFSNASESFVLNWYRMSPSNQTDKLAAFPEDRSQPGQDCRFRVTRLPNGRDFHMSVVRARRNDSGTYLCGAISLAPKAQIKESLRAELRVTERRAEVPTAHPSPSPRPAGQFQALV
As to the kind of experiment: SPR Biacore 8K, antibody captured by anti-human IgG (Fc), cynomolgus PD-1 as analyte.

Chain of human PD-1 (Q15116 25-288 limits assumed): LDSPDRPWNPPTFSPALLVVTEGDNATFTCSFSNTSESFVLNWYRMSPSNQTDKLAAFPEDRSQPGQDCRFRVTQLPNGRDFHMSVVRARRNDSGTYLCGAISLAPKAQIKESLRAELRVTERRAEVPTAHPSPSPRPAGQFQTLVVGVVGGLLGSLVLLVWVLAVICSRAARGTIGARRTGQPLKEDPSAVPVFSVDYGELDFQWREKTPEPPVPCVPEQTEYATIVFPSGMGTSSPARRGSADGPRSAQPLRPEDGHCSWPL

B1: A17m0902_hIgG4 (antibody, V domains shown)
VH: EVQLVESGGGLVQPGGSLRLSCAASGLTFSDYSMSWYRQAPGKGRELVAIISGSGVITHYVDSVKGRFTISRDNAKNTLYLQMRSLRAEDTAVYYCRAVSDWEDYWGQGTQVTVSS
notes: VHH-Fc antibody; not shown: human IgG4 Fc with hinge region and S228P (EU)
Consider B1, for which the “IC50, PD-1/PD-L1 NFAT reporter gene system” value with human PD-1 was determined as 0.435 nM. In assay [1], this molecule had an equilibrium dissociation constant (Kd) of 6.09 nM, a koff of 0.00177 s⁻¹ and a kon of 291000 M⁻¹ s⁻¹. In addition, in assay [2], the equilibrium dissociation constant (Kd) worked out at 3.28 nM, the koff was found to be 0.00108 s⁻¹ and the association rate constant (kon) was 328000 M⁻¹ s⁻¹.

The values above are taken from patent publication EP4477673A1, “IMMUNOCONJUGATE AND USE THEREOF” (priority 2022, dated 2023).
